This is an account of results in patent US20210355220A1 (TIKCRO TECHNOLOGIES, published 2021).

The target of test [1] is T1, human CTLA-4 expressed on cells (human, UniProt P16410 36-223).
T1 construct: whole, on cells; On stably or transiently transfected HEK293 cells; also called hCTLA-4; HEK293-hCTLA-4 cells
The test can be described thus: flow cytometry on HEK293-hCTLA-4 cells, reference ipilimumab. As for the experimental part: (§1) To test the binding of antibodies to CTLA-4 under more physiological conditions, the binding of CTLA-4 antibodies to cell-surface CTLA-4 was tested. […] The surface expression of hCTLA-4 in the obtained cell line was tested using a commercial anti-CTLA-4 antibody and compared to the parent cell line (HEK293 without transfection). […] The anti-CTLA-4 antibodies were incubated in serial dilution concentrations with the HEK293-hCTLA-4 cells for 1 hour on ice. Following a wash step, an anti-human antibody conjugated to ALEXA FLUOR® 647® was added for an additional hour. The cells were washed, and propidium iodide (PI) was added to exclude dead cells. The fluorescent signal was measured using FACS and analyzed. Dead cells were removed based on the PI signal. The population was gated based on forward and side scatter (FSC and SSC) parameters, and doublets were removed. The Median Fluorescent Intensity (MFI) of the appropriate channel was calculated for the live single cells from each group. The MFI was plotted versus antibody concentration in Prism software (V6.01) and kinetic parameters were obtained using a curve fit dose response function with four parameters. […] The lower EC₅₀ values indicate increased binding affinity to cell surface hCTLA-4.

Test [2] concerns the target T2, Macaque (Macaca fascicularis) CTLA-4 on HEK293 cells (Macaca fascicularis, UniProt G7PL88 36-223).
T2 construct: whole, on cells; also called macaque CTLA-4
The test can be described thus: flow cytometry on HEK293 cells transiently expressing macaque CTLA-4. The method, then: Macaque (Macaca fascicularis), pig (Sus scrofa) and mouse (Mus musculus) CTLA-4 proteins were transiently expressed on the surface of HEK293 cells. […] Binding was measured using FACS and analyzed.

For test [3], the target named is T3, Recombinant human CTLA-4-his (Sino Biologicals, 11159-H08H) (human, UniProt P16410 36-162).
T3 construct: Bought protein; also called dimer hCTLA-4; not shown: his tag
T3 sequence (P16410 36-162 limits assumed): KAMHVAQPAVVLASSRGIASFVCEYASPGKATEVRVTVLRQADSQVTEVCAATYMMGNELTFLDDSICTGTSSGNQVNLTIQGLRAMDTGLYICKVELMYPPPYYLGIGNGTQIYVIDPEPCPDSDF
As to the kind of experiment: ELISA, plate coated with non-reduced CTLA-4-his (dimer), anti-human-HRP, OD450; the box beside the curves does not name the quantity, the value lies at the half-maximal point of the curve (OD450 0.2 to 1.4). The method, then: (§2) hCTLA-4 can exist in monomer and dimer forms on the cell surface. […] The recombinant protein was incubated for 10 minutes with 100 mM DTT to reduce the protein to its monomeric form. […] The plates were coated overnight at 4° C., followed by a wash step and blocking with 20% milk for 1 hour at 37° C. […] The plate was washed and a secondary anti-human-HRP antibody (Jackson) was added at a 1:5000 dilution. A TMB solution was added, followed by stop solution and the OD at 450 nm was measured. Data was analyzed with Prism software.
Background: An ELISA detects its analyte on a solid surface through an enzyme-linked reagent.

Test [4] deals with T1, human CTLA-4 expressed on cells. As to the kind of experiment: flow cytometry, inhibition of CD80-mFC binding to HEK293-hCTLA-4 cells. The method, then:
(§3) As part of their activity, CTLA-4 therapeutic antibodies block the interaction between CTLA-4 and its ligands, leaving the ligands free for CD28 binding. […] First, HEK293-hCTLA-4 cells were incubated with the tested antibodies in a serial dilution for 30 minutes. […] The fluorescence was measured and analyzed. The experiment was performed in triplicate and is representative of three biological repeats.

Test [5] has the same target. The test can be described thus: flow cytometry, inhibition of CD86-mFC binding to HEK293-hCTLA-4 cells. As for the experimental part:
as §3
Background: A flow cytometer gives signals particle by particle.

In test [6] the target is T3, Recombinant human CTLA-4-his (Sino …). The test can be described thus: SPR (Biacore T100), reference ipilimumab. The method, then: Recombinant human CTLA-4-his (Sino Biologicals, 11159-H08H) was added in a serial 2-fold dilution, starting at a concentration of 500nM. […] The measurement was corrected using the baseline channel and the protein-antibody interaction was measured by the change in surface resonance and quantified with Biacore T100 control software (version 2.0.4).
A general note: SPR reads the build-up and loss of mass on a sensor chip optically.

Test [7] has as its target T1, human CTLA-4 expressed on cells. The test can be described thus: flow cytometry, inhibition of CD86-mFC binding to HEK293-hCTLA-4 cells, reference ipilimumab. The method, then: as §3
The target is the same in test [8]. As to the kind of experiment: flow cytometry, inhibition of CD80-mFC binding to HEK293-hCTLA-4 cells, reference ipilimumab. The method, then: as §3
Test [9] has the same target. As to the kind of experiment: flow cytometry, inhibition of CD86-mFC binding to HEK293-hCTLA-4 cells, reference tremelimumab. As for the experimental part: as §3
Test [10] deals with T4, CTLA-4-his reduced with 100 mM DTT to its monomeric form (human, UniProt P16410 36-162).
T4 construct: Same bought protein as the dimer, reduced with DTT before coating; also called monomer hCTLA-4; not shown: his tag
T4 sequence (P16410 36-162 limits assumed): as above
As to the kind of experiment: ELISA, plate coated with DTT-reduced CTLA-4-his (monomer), anti-human-HRP, OD450; the box beside the curves does not name the quantity, the value lies at the half-maximal point of the curve (OD450 0.2 to 1.4). As for the experimental part: as §2

The target in the next test is T5, hICOS on HEK293 cells (human, UniProt Q9Y6W8 21-199).
T5 construct: whole, on cells
T5 sequence (looked up): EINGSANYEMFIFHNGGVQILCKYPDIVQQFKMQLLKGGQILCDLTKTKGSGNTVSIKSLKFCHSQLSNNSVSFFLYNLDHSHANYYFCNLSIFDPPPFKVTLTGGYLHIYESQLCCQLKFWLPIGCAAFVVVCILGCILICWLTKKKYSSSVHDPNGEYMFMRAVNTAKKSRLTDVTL
The test can be described thus: flow cytometry on transfected HEK293 cells. The method, then: HEK293 cells were transfected with expression vectors of the following immune-related proteins: hBTLA, hICOS, hCD28, hPDL1, hPD1, hPDL2, and hCTLA-4. Over-expression of the proteins was verified using commercial antibodies against each target. […] Antibody binding to cells was then detected using flow cytometry. Cells that were incubated only with the secondary antibody were used as a background control. […] Note that “+” indicates binding above the background level and “-” indicate no binding as compared to the background level.

In test [11] the target is T1, human CTLA-4 expressed on cells. The test can be described thus: flow cytometry on HEK293-hCTLA-4 cells, reference tremelimumab. As for the experimental part: as §1

T1 sequence (P16410 36-223): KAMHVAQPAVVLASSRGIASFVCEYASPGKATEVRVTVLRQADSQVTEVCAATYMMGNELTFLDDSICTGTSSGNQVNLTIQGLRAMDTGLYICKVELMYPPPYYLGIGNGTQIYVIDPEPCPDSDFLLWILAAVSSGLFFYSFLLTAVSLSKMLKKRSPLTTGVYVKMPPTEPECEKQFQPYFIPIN
T2 sequence (G7PL88 entry or part of it): as the sequence (P16410 36-223) above, with S14N, I18T, L106M counted along it

B1: Ab55h (antibody, V domains shown)
VH: QVQLQESGPGLVKPSETLSLTCAVSGYSISGDYYWGWIRQPPGKGLEWIGSIYHSGYTYYNPSLKSRVTISVDTSKNQFSLKLSSVTAADTAVYYCARDSGWYVIAFDYWGQGTLVTVSS
VL: EIVMTQSPATLSVSPGERATLSCRASQSVSSNLAWYQEKPGQAPRLLIYGASTRATGIPARFSGSGSGTEFTLTISSLQSEDFAVYYCQQYNNWPPLTFGGGTKVEIK
notes: Human form, compared with an hIgG1 isotype control
By EC50 is commonly meant the concentration that produces a half-maximal response. For orientation: IC50 means the midpoint of a concentration-inhibition curve. A high value points to a need for much substance. For the molecule B1, the “Ratio Ipilimumab:Ab55h of EC50” value in test [1] turned out to be 6.1 fold. For the same molecule, the EC50 in test [2] was found to be 300 pM; in test [3], 8 pM; in [10] it was 2 pM. The IC50 turned out to be 1600 pM in test [4] and 1500 pM in test [5]. Besides, the “Ratio Ipilimumab:Ab55h of Kd” value in [6] amounted to 8.1 fold. The “Ratio Ipilimumab:Ab55h of Koff” value in [6] stood at 1.3 fold. Moreover, in [6], the “Ratio Ipilimumab:Ab55h of Kon” value came out at 0.16 fold. Further, the figures for the “Ratio Ipilimumab:Ab55h of IC50” value in [7] and in test [8] were 2.2 fold and 3 fold, respectively. Further, in [9], the “Ratio Tremelimumab:Ab55h of IC50” value came out at 2.8 fold. Also, in the test with hICOS on HEK293 cells, the MFI worked out at 67 MFI. Also, the binding result in the test with hICOS on HEK293 cells is given as “no binding”. Moreover, the “Ratio Tremelimumab:Ab55h of EC50” value in test [11] was found to be 7.5 fold.
